In paper doi:10.1101/2021.12.21.473719:

Molecular target: POPDC1 tagged with Venus (YFP acceptor for FLIM-FRET with TREK-1) (mouse) (UniProt Q9ES83)
Test: FRET or BRET

Sequence of POPDC1 tagged with Venus (YFP acceptor for FLIM-FRET with TREK-1) (mouse) (Q9ES83 whole entry): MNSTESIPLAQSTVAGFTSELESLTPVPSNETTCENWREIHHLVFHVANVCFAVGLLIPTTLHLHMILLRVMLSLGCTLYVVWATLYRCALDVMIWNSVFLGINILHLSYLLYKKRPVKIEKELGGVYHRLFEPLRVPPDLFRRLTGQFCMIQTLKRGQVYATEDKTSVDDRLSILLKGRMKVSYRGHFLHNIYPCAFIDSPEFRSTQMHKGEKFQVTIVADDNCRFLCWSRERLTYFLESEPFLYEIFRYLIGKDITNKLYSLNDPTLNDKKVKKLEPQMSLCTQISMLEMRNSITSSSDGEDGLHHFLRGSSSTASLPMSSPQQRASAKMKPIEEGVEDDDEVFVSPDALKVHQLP
Sequence of Cerulean-TREK-1 (natural protein) (O95069 whole entry): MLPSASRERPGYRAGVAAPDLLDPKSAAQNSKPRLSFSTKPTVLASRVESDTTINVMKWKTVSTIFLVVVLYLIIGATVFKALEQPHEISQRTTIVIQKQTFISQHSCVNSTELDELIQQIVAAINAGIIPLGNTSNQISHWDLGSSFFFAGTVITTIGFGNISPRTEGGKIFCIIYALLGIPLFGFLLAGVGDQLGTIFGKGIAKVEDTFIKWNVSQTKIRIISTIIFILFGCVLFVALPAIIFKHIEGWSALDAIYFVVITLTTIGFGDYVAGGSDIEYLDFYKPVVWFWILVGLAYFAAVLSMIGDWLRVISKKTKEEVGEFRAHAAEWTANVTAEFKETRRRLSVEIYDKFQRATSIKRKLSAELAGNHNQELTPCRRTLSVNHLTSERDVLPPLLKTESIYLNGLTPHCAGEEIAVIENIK

In the case of Cerulean-TREK-1 (natural protein), the FRET efficiency is reported as 18%.
